For orientation: Kd means the concentration at which binding is half-saturated. Lower therefore signals a tighter complex.

A value given as a limit tells only on which side of the number the result lay.

Here are results for 1 molecule from patent CN108003238A (VELOX PHARMACEUTICALS INC, dated 2018).

Experiment [1] concerns the target 小鼠CTLA4/CD152蛋白(His标签) (mouse) (UniProt P09793). Put plainly: ELISA, mouse CTLA-4 coated, anti-human Fc HRP detection. In general terms: An ELISA detects its analyte on a solid surface through an enzyme-linked reagent.
Chain of UniProt P09793 (P09793 36-161 limits assumed): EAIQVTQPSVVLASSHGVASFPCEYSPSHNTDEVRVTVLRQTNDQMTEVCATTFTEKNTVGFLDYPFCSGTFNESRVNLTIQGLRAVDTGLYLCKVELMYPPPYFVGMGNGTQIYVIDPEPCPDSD
Experiment [2] concerns the target T1, Human CTLA-4/CD152 Protein (His Tag), Biotinylated (human, UniProt P16410 36-161, biotinylated (site not stated)).
T1 construct: Bought recombinant protein; also called 人CTLA-4蛋白; 抗原; not shown: His tag
T1 sequence (looked up): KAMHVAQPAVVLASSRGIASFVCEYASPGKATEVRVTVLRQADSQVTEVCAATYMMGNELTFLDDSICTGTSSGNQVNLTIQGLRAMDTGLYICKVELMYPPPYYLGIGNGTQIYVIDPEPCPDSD
As to the kind of experiment: multi-cycle kinetics on OCTET, antibody captured on Protein A, CTLA-4 diluted 2-fold from 33 nM over 7 points.

B1: IgG1-6E2-CTLA-4 (antibody, V domains shown)
VH: QVQLVQSGAEVKKPGSSVKVSCKASGGTFSSYGISWVRQAPGQGLEWMGGIIPIFETSESAQKFQGRVTFTADKSSSTGYMELSSLRSEDTAIYYCARDPLHRSSSGTYYHYFMDVWGQGTMVTVSS
VL: QAVLTQPSSLSASPGASVSLTCTLRSGINVGAYRIYWYQQKPGSPPQFLLRYKSDSDKEQGRGVPSRFSGSKDASANAGILLISGLQSEDEADYYCMIWHNNAVFFGGGTKLTVLG
notes: also called 抗CTLA-4全人源单克隆抗体
Regarding B1, the antibody concentration at which binding is still not saturated in experiment [1] was above 8 ng/µL. In experiment [2], this molecule yielded a Kd of 1 pM.
